Source: patent publication US20230151068A1
Residue numbers refer to the chain shown, from its start. Numbers in names are those of the source. Blank lines part the entries; values can stand above or below the binder they belong to.

Target: biotinylated His-Avi-TEAD (194-411) (UniProt P28347)
Experiment: SSM screen, enrichment after two rounds of sorting

enrichment score: 0.47
B5: R07K variant of SEQ ID NO: 1 (designed binder)
chain: GSPDEYIEKAKECCKKGDIQCCLRYFEESGDPNVMLICLFCP

enrichment score: -10.1
B8: A08M variant of SEQ ID NO: 1 (designed binder)
chain: B5 chain with K9R, A10M

enrichment score: -4.73
B10: A08K variant of SEQ ID NO: 1 (designed binder)
chain: B5 chain with K9R, A10K

enrichment score: -5.84
B12: A08R variant of SEQ ID NO: 1 (designed binder)
chain: B5 chain with K9R, A10R

enrichment score: 0.31
B13: R07S variant of SEQ ID NO: 1 (designed binder)
chain: B5 chain with K9S

enrichment score: -4.07
B14: R07T variant of SEQ ID NO: 1 (designed binder)
chain: B5 chain with K9T

enrichment score: -1.94
B16: E10Q variant of SEQ ID NO: 1 (designed binder)
chain: B5 chain with K9R, E12Q

enrichment score: -2.47
B18: E10S variant of SEQ ID NO: 1 (designed binder)
chain: B5 chain with K9R, E12S

enrichment score: -1.3
B19: K09R variant of SEQ ID NO: 1 (designed binder)
chain: B5 chain with K9R, K11R

enrichment score: 1.1
B26: K09Q variant of SEQ ID NO: 1 (designed binder)
chain: B5 chain with K9R, K11Q

enrichment score: -0.45
B30: E10N variant of SEQ ID NO: 1 (designed binder)
chain: B5 chain with K9R, E12N

enrichment score: -2.79
B33: A08S variant of SEQ ID NO: 1 (designed binder)
chain: B5 chain with K9R, A10S

enrichment score: 0.34
B36: R07N variant of SEQ ID NO: 1 (designed binder)
chain: B5 chain with K9N

enrichment score: -2.3
B37: E10K variant of SEQ ID NO: 1 (designed binder)
chain: B5 chain with K9R, E12K

enrichment score: -0.92
B40: E06T variant of SEQ ID NO: 1 (designed binder)
chain: B5 chain with E8T, K9R

enrichment score: 3.31
B41: K09N variant of SEQ ID NO: 1 (designed binder)
chain: B5 chain with K9R, K11N

enrichment score: -1.06
B43: R07M variant of SEQ ID NO: 1 (designed binder)
chain: B5 chain with K9M

enrichment score: -9.2
B45: A08N variant of SEQ ID NO: 1 (designed binder)
chain: B5 chain with K9R, A10N

enrichment score: -0.91
B46: K09S variant of SEQ ID NO: 1 (designed binder)
chain: B5 chain with K9R, K11S

enrichment score: -0.34
B47: E10M variant of SEQ ID NO: 1 (designed binder)
chain: B5 chain with K9R, E12M

enrichment score: -0.48
B48: R07Q variant of SEQ ID NO: 1 (designed binder)
chain: B5 chain with K9Q

enrichment score: -2.84
B50: E10R variant of SEQ ID NO: 1 (designed binder)
chain: B5 chain with K9R, E12R

enrichment score: -3.56
B51: K09M variant of SEQ ID NO: 1 (designed binder)
chain: B5 chain with K9R, K11M

enrichment score: -6
B52: A08Q variant of SEQ ID NO: 1 (designed binder)
chain: B5 chain with K9R, A10Q

enrichment score: -3.84
B58: A08T variant of SEQ ID NO: 1 (designed binder)
chain: B5 chain with K9R, A10T

The next lines start with the binder.

B1: I05K variant of SEQ ID NO: 1 (designed binder)
chain: B5 chain with I7K, K9R
enrichment score: -1.5

B2: E06K variant of SEQ ID NO: 1 (designed binder)
chain: B5 chain with E8K, K9R
enrichment score: -1.13

B3: Y04N variant of SEQ ID NO: 1 (designed binder)
chain: B5 chain with Y6N, K9R
enrichment score: 0.04

B4: Y04M variant of SEQ ID NO: 1 (designed binder)
chain: B5 chain with Y6M, K9R
enrichment score: -0.68

B6: D02R variant of SEQ ID NO: 1 (designed binder)
chain: B5 chain with D4R, K9R
enrichment score: -7.12

B7: E06Q variant of SEQ ID NO: 1 (designed binder)
chain: B5 chain with E8Q, K9R
enrichment score: -2.41

B9: E06R variant of SEQ ID NO: 1 (designed binder)
chain: B5 chain with E8R, K9R
enrichment score: -1.78

B11: D02S variant of SEQ ID NO: 1 (designed binder)
chain: B5 chain with D4S, K9R
enrichment score: -1.01

B15: P01Q variant of SEQ ID NO: 1 (designed binder)
chain: B5 chain with P3Q, K9R
enrichment score: -0.84

B17: D02T variant of SEQ ID NO: 1 (designed binder)
chain: B5 chain with D4T, K9R
enrichment score: -0.52

B20: P01S variant of SEQ ID NO: 1 (designed binder)
chain: B5 chain with P3S, K9R
enrichment score: 0.13

B21: Y04R variant of SEQ ID NO: 1 (designed binder)
chain: B5 chain with Y6R, K9R
enrichment score: -0.94

B22: P01N variant of SEQ ID NO: 1 (designed binder)
chain: B5 chain with P3N, K9R
enrichment score: -0.49

B23: E03N variant of SEQ ID NO: 1 (designed binder)
chain: B5 chain with E5N, K9R
enrichment score: 0.58

B24: D02N variant of SEQ ID NO: 1 (designed binder)
chain: B5 chain with D4N, K9R
enrichment score: -0.16

B25: D02Q variant of SEQ ID NO: 1 (designed binder)
chain: B5 chain with D4Q, K9R
enrichment score: -0.2

B27: E03Q variant of SEQ ID NO: 1 (designed binder)
chain: B5 chain with E5Q, K9R
enrichment score: -1.35

B28: I05M variant of SEQ ID NO: 1 (designed binder)
chain: B5 chain with I7M, K9R
enrichment score: -1.87

B29: I05N variant of SEQ ID NO: 1 (designed binder)
chain: B5 chain with I7N, K9R
enrichment score: -1.34

B31: E03R variant of SEQ ID NO: 1 (designed binder)
chain: B5 chain with E5R, K9R
enrichment score: -1.81

B32: Y04Q variant of SEQ ID NO: 1 (designed binder)
chain: B5 chain with Y6Q, K9R
enrichment score: 0.29

B34: I05Q variant of SEQ ID NO: 1 (designed binder)
chain: B5 chain with I7Q, K9R
enrichment score: -1.23

B35: E06N variant of SEQ ID NO: 1 (designed binder)
chain: B5 chain with E8N, K9R
enrichment score: -0.82

B38: P01T variant of SEQ ID NO: 1 (designed binder)
chain: B5 chain with P3T, K9R
enrichment score: -0.57

B39: E06M variant of SEQ ID NO: 1 (designed binder)
chain: B5 chain with E8M, K9R
enrichment score: -2.04

B42: E03S variant of SEQ ID NO: 1 (designed binder)
chain: B5 chain with E5S, K9R
enrichment score: -0.41

B44: Y04S variant of SEQ ID NO: 1 (designed binder)
chain: B5 chain with Y6S, K9R
enrichment score: -0.74

B49: P01R variant of SEQ ID NO: 1 (designed binder)
chain: B5 chain with P3R, K9R
enrichment score: -2.1

B53: I05S variant of SEQ ID NO: 1 (designed binder)
chain: B5 chain with I7S, K9R
enrichment score: -2.04

B54: P01M variant of SEQ ID NO: 1 (designed binder)
chain: B5 chain with P3M, K9R
enrichment score: -1.02

B55: I05T variant of SEQ ID NO: 1 (designed binder)
chain: B5 chain with I7T, K9R
enrichment score: -1.77

B56: I05R variant of SEQ ID NO: 1 (designed binder)
chain: B5 chain with I7R, K9R
enrichment score: -3.27

B57: E03M variant of SEQ ID NO: 1 (designed binder)
chain: B5 chain with E5M, K9R
enrichment score: 2.57

B59: Y04T variant of SEQ ID NO: 1 (designed binder)
chain: B5 chain with Y6T, K9R
enrichment score: -0.87

B60: E03T variant of SEQ ID NO: 1 (designed binder)
chain: B5 chain with E5T, K9R
enrichment score: 1.19

B61: D02M variant of SEQ ID NO: 1 (designed binder)
chain: B5 chain with D4M, K9R
enrichment score: -1.86

B62: E06S variant of SEQ ID NO: 1 (designed binder)
chain: B5 chain with E8S, K9R
enrichment score: -1.09
